Assay results from US11702475B2, “Cysteine engineered fibronectin type III domain binding molecules” (Janssen Biotech, Inc., priority 2013, dated 2023).
Positions count from the first letter of the chain named. Numbers in names are those of the source.

B1: ECB15: bispecific SEQ ID 57: P54AR4-83V2, (AP)5, P114AR7P94-A3 (protein)
chain: MLPAPKNLVVSEVTEDSARLSWDDPWAFYESFLIQYQESEKVGEAIVLTVPGSERSYDLTGLKPGTEYTVSIYGVHNVYKDTNMRGLPLSAIFTTAPAPAPAPAPLPAPKNLVVSRVTEDSARLSWTAPDAAFDSFWIRYFEFLGSGEAIVLTVPGSERSYDLTGLKPGTEYVVNIMGVKGGKISPPLSAIFTT
modifications: bispecific EGFR/cMet binding molecule
B2: ECB94: bispecific SEQ ID 61: P54AR4-83V22, (AP)5, P114AR7P94-A3v22 (protein)
chain: B1 chain with M84I, M177L
modifications: bispecific EGFR/cMet binding molecule
B3: ECB106: bispecific SEQ ID 65: P54AR4-83V23, (AP)5, P114AR7P94-A3v22 (protein)
chain: B1 chain with W26H, M84I, M177L
modifications: bispecific EGFR/cMet binding molecule
B4: ECB95: bispecific SEQ ID 62: P54AR4-83V22, (AP)5, P114AR9P121-A6v2 (protein)
chain: B1 chain with M84I, L144V, M177L, K183S
modifications: bispecific EGFR/cMet binding molecule
B5: ECB96: bispecific SEQ ID 63: P54AR4-83V22, (AP)5, P114AR9P122-A7v2 (protein)
chain: B1 chain with M84I, L144V, G145S, S146K, E148D, M177L, K183S
modifications: bispecific EGFR/cMet binding molecule
B6: ECB97: bispecific SEQ ID 64: P54AR4-83V22, (AP)5, P114AR7P95-C5V2 (protein)
chain: B1 chain with M84I, M177L, G178S, K183S
modifications: bispecific EGFR/cMet binding molecule
B7: I91C: cysteine variant of P54AR4-83v2 (SEQ ID NOS: 215 and 253); NEM and VC-MMAF conjugates (conjugate)
chain: MLPAPKNLVVSEVTEDSARLSWDDPWAFYESFLIQYQESEKVGEAIVLTVPGSERSYDLTGLKPGTEYTVSIYGVHNVYKDTNMRGLPLSACFTT
modifications: NEM or vcMMAF conjugate; EGFR binding FN3 domain
notes: NEM and VC-MMAF conjugates
B8: P54CR4-31: EGFR-binding FN3 domain, SEQ ID NO: 26 (protein)
chain: LPAPKNLVVSEVTEDSLRLSWTAPDAAFDSFLIQYQESEKVGEAINLTVPGSERSYDLTGLKPGTEYTVSIYGVLGSYVFEHDVMLPLSAEFTT
modifications: EGFR binding FN3 domain
B9: P54CR4-31v2: P54CR4-31 with mutations L17A, N46V, E86I; SEQ ID NO: 28 (protein)
chain: B8 chain with L17A, N46V, E91I
modifications: EGFR binding FN3 domain
B10: P54AR4-83: EGFR-binding FN3 domain, SEQ ID NO: 25 (protein)
chain: LPAPKNLVVSEVTEDSLRLSWDDPWAFYESFLIQYQESEKVGEAINLTVPGSERSYDLTGLKPGTEYTVSIYGVHNVYKDTNMRGLPLSAEFTT
modifications: EGFR binding FN3 domain
B11: P54AR4-37: EGFR-binding FN3 domain, printed SEQ ID NO: 22 (that of P54AR4-73) (protein)
chain: B10 chain with D22T, D23W, W25Y, F27D, Y28L, E29D
modifications: left off: small tags and cut ends
B12: P54AR4-37v2: P54AR4-37 with mutations L17A, N46V, E86I; SEQ ID NO: 29 (protein)
chain: B10 chain with D22T, D23W, W25Y, F27D, Y28L, E29D
modifications: EGFR binding FN3 domain
B13: P114AR7P92-G8: c-Met-binding FN3 domain, SEQ ID NO: 36 (protein)
chain: LPAPKNLVVSRVTEDSARLSWTAPDAAFDSFVIRYFEFLGSGEAIVLTVPGSERSYDLTGLKPGTEYVVQILGVKGGYISIPLSAIFTT
modifications: c-Met binding FN3 domain
B14: P114AR7P94-E5: c-Met-binding FN3 domain, SEQ ID NO: 42 (protein)
chain: B13 chain with V32W, V68A, Q70N, L72M, Y78R, I79V, I81V
modifications: c-Met binding FN3 domain
B15: P114AR7P93-G8: c-Met-binding FN3 domain, SEQ ID NO: 39 (protein)
chain: B13 chain with V32W, G60D, V68G, Q70T, L72N, Y78R, I79V, I81T
modifications: c-Met binding FN3 domain
B16: P114AR7P92-F6: c-Met-binding FN3 domain, SEQ ID NO: 35 (protein)
chain: B13 chain with V32W, Q70N, Y78G, I79L, I81V
modifications: c-Met binding FN3 domain
B17: P114AR7P95-H8: c-Met-binding FN3 domain, SEQ ID NO: 49 (protein)
chain: B13 chain with V32W, L39V, G40S, S41K, Q70N, L72M, Y78S, I81P
modifications: c-Met binding FN3 domain
B18: P114AR7P93-H9: c-Met-binding FN3 domain, SEQ ID NO: 40 (protein)
chain: B13 chain with V32W, L72I, Y78H, I81L
modifications: c-Met binding FN3 domain
B19: P114AR7P94-A3: c-Met-binding FN3 domain, SEQ ID NO: 41 (protein)
chain: B13 chain with V32W, Q70N, L72M, Y78K, I81P
modifications: c-Met binding FN3 domain
B20: P114AR7P92-H5: c-Met-binding FN3 domain, SEQ ID NO: 37 (protein)
chain: B13 chain with V32W, F36L, G40L, S41G, L72M, Y78T, I79V, I81P
modifications: c-Met binding FN3 domain
B21: P114AR7P95-F10: c-Met-binding FN3 domain, SEQ ID NO: 47 (protein)
chain: B13 chain with V32W, L39T, G40T, S41A, Q70N, L72M, Y78S, I81P
modifications: c-Met binding FN3 domain
B22: P114AR7P95-D4: c-Met-binding FN3 domain, SEQ ID NO: 45 (protein)
chain: B13 chain with V32W
modifications: c-Met binding FN3 domain
B23: P114AR5P74-A5: c-Met-binding FN3 domain, SEQ ID NO: 32 (protein)
chain: B13 chain with V32W, F36D, F38V, L39V, G40V, S41G, V68Y, Q70N, Y78S, I81V
modifications: c-Met binding FN3 domain
B24: P114AR7P95-G7: c-Met-binding FN3 domain, SEQ ID NO: 48 (protein)
chain: B13 chain with V32W, F38L, G40S, S41T, Q70N, L72M, Y78S, I81P
modifications: c-Met binding FN3 domain

system: H292 cells; test: Inhibition of proliferation of H292 cells (HGF-induced); type: cell-based, human; conditions: not given
Description: Inhibition of tumor cell proliferation can be measured using standard methods and methods described herein.
It was verified that the enhanced potency for inhibition of EGFR and c-Met phosphorylation with the bispecific EGFR/c-Met molecules translated into an enhanced inhibition of signaling and proliferation. […] The proliferation assay was completed using different combinations EGFR and c-Met binding FN3 domains either as a mixture or linked in a bispecific format. […] This confirmed that the avidity effect observed at the level of the receptors (FIG. 6 and FIG. 7) translates into an improvement in inhibiting cell signaling (Table 17) and cell proliferation (Table 18).
Select EGFR/c-Met molecules were characterized for their affinity to both EGFR and c-Met, their ability to inhibit EGFR and c-Met autophosphorylation, and their effect on proliferation of HGF cells. Binding affinity of the bispecific EGFR/c-Met molecules to recombinant EGFR and/or c-Met extracellular domain was further by surface Plasmon resonance methods using a Proteon Instrument (BioRad) according to protocol described in Example 3.

Molecule	IC50
B1	23 nM
B2	29.6 nM
B3	484 nM
B4	383 nM
B5	9480 nM
B6	31 nM

system: EGFR-overexpressing human tumor cell line H1573; test: Cytotoxicity assay in H1573 cells; type: cell-based; conditions: cysteine variants conjugated to VC-MMAF, Cell TiterGlo at 70 hours, read-out: IC50
Outline: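 Cysteine-variant proteins conjugated to an auristatin tubulin inhibitor via non-cleavable PEG4 or cleavable Val-Cit/Val-Lys linkers were added to attached cells in phenol red-free RPMI with 5% FBS. Viability was read by CellTiter-Glo at 70 h. IC50 came from sigmoidal variable-slope fits.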

Molecule	IC50
B7	0.54 nM

system: not listed separately; test: Differential scanning calorimetry in PBS of FN3 domains; type: physicochemical; conditions: DSC in PBS; EGFR-binding FN3 domains and stabilised mutants
Description: A subset of the EGFR binding FN3 domains was engineered to increase the conformational stability of each molecule. The mutations L17A, N46V, and E86I (described in US Pat. Publ. No. 2011/0274623) were incorporated into clones P54AR4-83, P54CR4-31, and P54AR4-37 by DNA synthesis. […] Differential scanning calorimetry in PBS was used to assess the stability of each mutant in order to compare it to that of the corresponding parent molecule.
Thermal Stability of c-Met-Binding FN3 Domains Differential scanning calorimetry in PBS was used to assess the stability of each FN3 domain.

Molecule	Tm
B8	60.9 °C
B9	78.9 °C
B10	50.6 °C
B11	45.9 °C
B12	64.2 °C

same assay, conditions: DSC in PBS; c-Met-binding FN3 domains

Molecule	Thermal Stability (Tm)
B13	90.9 C.
B14	80 C.
B15	76.8 C.
B16	76.8 C.
B17	83 C.
B18	88.2 C.
B19	86.2 C.
B20	87 C.
B21	85.2 C.
B22	85.3 C.
B23	74.1 C.
B24	87.2 C.

system: not listed separately; test: Thermal stability of cysteine-NEM conjugates by DSC; type: physicochemical; conditions: DSC 25-100 °C, 1 °C per minute
Outline: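 Cysteine-NEM conjugates heated from 25 °C to 100 °C at 1 °C/min by DSC, with a repeat scan to check reversibility of unfolding. Melting temperature derived by fitting to a 2-state unfolding model.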

Molecule	First Scan Tm
B7	70 °C

same assay, conditions: second identical scan

Molecule	Second Scan Tm
B7	69 °C

system: not listed separately; test: Analytical size exclusion chromatography (percent monomer); type: physicochemical; conditions: NEM-conjugated cysteine variants; SEC, Abs280 monomer region 5.5-6 minutes vs oligomer region 4-5.3 minutes
Outline: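 Purified FN3 domains were run on a Superdex 75 5/150 column in PBS pH 7.4 at 0.3 mL/min with A280 detection. Percent monomer came from integrating the monomer peak (5.5–6 min) against oligomer peaks (4–5.3 min).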

Molecule	Percent monomer
B7	100%
